The source of these data is article PMC5928759, “D-Serine Metabolism and Its Importance in Development of Dictyostelium discoideum” (Frontiers in Microbiology, 2018).

Data set [1] addresses T1, D-amino acid oxidase (DAO; DDB0238432 protein) (Dictyostelium discoideum, UniProt Q556W1).
T1 construct: gene ddo-1; cDNA from EST clone in pET15b, N-terminal 6-His tag, expressed in E. coli Rosetta (DE3), Ni-NTA purified
Description: UV-visible spectrum of purified enzyme. Particulars: oxidized flavin, maxima around 360 and 450 nm; FAD in storage buffer. The data set is classed as binding.

Substrate in data set [2]: N[C@H](CO)C(=O)O
Description: purified protein. The note with it: oxidative deamination, 50 mM Tris-HCl pH 8.5, 20 μM FAD.

Substrate in data set [3]: C[C@@H](N)C(=O)O
Description: purified protein. The note with it: oxidative deamination, 50 mM Tris-HCl pH 8.5, 20 μM FAD.

Consider `Cc1cc2nc3c(=O)[nH]c(=O)nc-3n(C[C@H](O)[C@H](O)[C@H](O)COP(=O)(O)OP(=O)(O)OC[C@H]3O[C@@H](n4cnc5c(N)ncnc54)[C@H](O)[C@@H]3O)c2cc1C` [FAD], for which, in data set [1], the “UV-visible spectrum of purified enzyme” value is on record as “indicating that it possesses an oxidized form of the flavin cofactor”.

B1: D-amino acid oxidase (DAO; DDB0238432 protein) (Dictyostelium discoideum) (protein)
chain: MNQNKNNNNKNPKINLLIIGCGCIGLSTGIIALKSGNYKSVSIWAKDLPPNTTSNKAAALWYPFLCNPLDLVGKWSAETMQYYKDHIINDPKSGTITKKVNEIFRRPHPEDPEWKPYIKSFRRARKDELPDGYVDGYAIDDGFVMDTDMYMDYLVDQFKSLGGIIEQRHLVDIREAFVDHDVVVNCTGLGSRELFNDRTIYPGRGQIIVIKNSTDRSIMDEEDHIAYVIPRLTNTVLGGTNQEHDYNTNPTKKDTEEILKRVAMISPRFAKNRIEIQGVKVGLRPARHEIRLENEFFEGGSKLVVHNYGHGGSGFTVSWGCAIEAIKLVDQGLPKLLHFNKLISKL
B1: in the data set “purified protein [2]”, the Km (commonly the concentration of substrate that gives half-maximal velocity) is 6.1 ± 0.78 mM; the kcat (commonly the number of substrate molecules converted per active site and unit of time at saturation) was 0.05 s⁻¹; the kcat/Km (usually the turnover number divided by the Michaelis constant) turned out to be 10 M⁻¹ s⁻¹. In the data set “purified protein [3]”, the Km came out at 0.78 ± 0.05 mM, the kcat worked out at 0.53 s⁻¹ and the kcat/Km amounted to 680 M⁻¹ s⁻¹.
